This is an account of results in patent US20250277199, “NOVEL CRISPR-CAS NUCLEASES FROM METAGENOMES” (Brain Biotech AG, published 2025).

Where only a bound is given, the exact number is not on record here.

The target in the data set is T1, BMC15 (uncultured bacterium (metagenome)).
T1 chain: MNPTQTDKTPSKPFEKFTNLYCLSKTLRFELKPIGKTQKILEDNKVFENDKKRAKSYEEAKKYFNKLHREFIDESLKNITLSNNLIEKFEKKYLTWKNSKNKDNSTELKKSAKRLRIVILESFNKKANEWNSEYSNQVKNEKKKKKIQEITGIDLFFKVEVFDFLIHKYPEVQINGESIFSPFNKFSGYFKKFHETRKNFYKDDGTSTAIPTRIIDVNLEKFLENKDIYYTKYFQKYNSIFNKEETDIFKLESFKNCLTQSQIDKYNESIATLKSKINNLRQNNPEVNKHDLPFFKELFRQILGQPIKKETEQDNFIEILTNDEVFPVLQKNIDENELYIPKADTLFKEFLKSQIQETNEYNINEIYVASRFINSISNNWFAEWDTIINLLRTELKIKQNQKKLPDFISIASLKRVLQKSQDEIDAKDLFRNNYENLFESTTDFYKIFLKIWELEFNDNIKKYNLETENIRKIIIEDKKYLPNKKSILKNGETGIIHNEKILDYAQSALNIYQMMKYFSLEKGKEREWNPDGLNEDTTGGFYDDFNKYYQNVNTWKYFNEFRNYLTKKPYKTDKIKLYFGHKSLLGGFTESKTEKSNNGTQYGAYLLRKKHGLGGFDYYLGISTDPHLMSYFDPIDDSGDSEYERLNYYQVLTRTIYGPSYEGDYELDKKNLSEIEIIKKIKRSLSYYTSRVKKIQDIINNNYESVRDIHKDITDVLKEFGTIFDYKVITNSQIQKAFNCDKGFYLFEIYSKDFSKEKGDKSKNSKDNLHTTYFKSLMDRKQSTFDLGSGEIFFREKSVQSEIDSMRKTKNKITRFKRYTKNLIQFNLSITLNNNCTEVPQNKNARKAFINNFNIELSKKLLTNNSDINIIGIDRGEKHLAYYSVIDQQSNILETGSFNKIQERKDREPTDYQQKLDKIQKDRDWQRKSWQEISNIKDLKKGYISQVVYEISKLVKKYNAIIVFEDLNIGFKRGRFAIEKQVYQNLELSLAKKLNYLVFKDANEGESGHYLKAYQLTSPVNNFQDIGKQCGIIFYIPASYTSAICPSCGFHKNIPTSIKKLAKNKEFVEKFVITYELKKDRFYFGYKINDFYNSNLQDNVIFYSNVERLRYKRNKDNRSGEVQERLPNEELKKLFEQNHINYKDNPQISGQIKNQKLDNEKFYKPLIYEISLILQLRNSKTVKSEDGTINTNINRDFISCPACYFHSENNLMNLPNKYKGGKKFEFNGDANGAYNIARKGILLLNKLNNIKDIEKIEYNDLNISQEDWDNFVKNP
Put plainly: cell_activity; PAM not stated; E. coli depletion, 30 C. Put shortly:
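E. coli carrying arabinose-induced (0.2%) BMC nuclease, grown at 30° C., made electrocompetent and electroporated with 50-100 ng plasmid carrying gRNA against malQ. Transformants plated on selective M9-glucose agar with kanamycin/ampicillin (± nourseothricin), and growth scored after 48 h at 30° C.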

B1: malQ gRNA (BMC stem-loop + 24 nt spacer) ; malQ protospacer (ssRNA ; dsDNA)
RNA: GAUUUCUACUAUUGUAGAUGUGGCGGUACGUUGAUGCAUCGCG
DNA 1: GTGGCGGTACGTTGATGCATCGCG
DNA 2: CGCGATGCATCAACGTACCGCCAC
As for B1, the activity was over 99.9 % colony reduction.
